Measured values as given in patent publication US20100216721A1.

What was measured:
[1] = target: HIV-1 SF162 gp120 (HIV-1 strain SF162), P19550; assay: SPR (Biacore 3000); peptide over immobilized gp120
[2] = target: HIV-1 92UG037-08 gp120 (HIV-1 strain 92UG037-08); assay: SPR (Biacore 3000); peptide over immobilized gp120

RINNIPWSEAMM (modifications not checked) [HNG-105] was tested, and the Kd [1] was 70.5 nM and the Kd [2] was 1840 nM.

With RINNIPWSEAMM (modifications not checked) [HNG-156] the Kd [1] was 9 nM and the Kd [2] was 16.3 nM.
